Experimental data: patent US20230183355A1 (UNIVERSITY OF WESTERN ONTARIO, published 2023)
Numbering of substitutions follows the chain as printed. Blank lines part the entries; values can stand above or below the binder they belong to.

How the values were obtained:
[1] = target: T1, human CD11d/CD18 expressed on JY cells (human, UniProt Q13349 18-1161; P05107 23-769); assay: FACS on JY cells expressing human CD11d/CD18; non-linear regression, one-site binding model
T1 construct: whole, on cells
T1 sequence (Q13349 18-1161, chain 1 of 2): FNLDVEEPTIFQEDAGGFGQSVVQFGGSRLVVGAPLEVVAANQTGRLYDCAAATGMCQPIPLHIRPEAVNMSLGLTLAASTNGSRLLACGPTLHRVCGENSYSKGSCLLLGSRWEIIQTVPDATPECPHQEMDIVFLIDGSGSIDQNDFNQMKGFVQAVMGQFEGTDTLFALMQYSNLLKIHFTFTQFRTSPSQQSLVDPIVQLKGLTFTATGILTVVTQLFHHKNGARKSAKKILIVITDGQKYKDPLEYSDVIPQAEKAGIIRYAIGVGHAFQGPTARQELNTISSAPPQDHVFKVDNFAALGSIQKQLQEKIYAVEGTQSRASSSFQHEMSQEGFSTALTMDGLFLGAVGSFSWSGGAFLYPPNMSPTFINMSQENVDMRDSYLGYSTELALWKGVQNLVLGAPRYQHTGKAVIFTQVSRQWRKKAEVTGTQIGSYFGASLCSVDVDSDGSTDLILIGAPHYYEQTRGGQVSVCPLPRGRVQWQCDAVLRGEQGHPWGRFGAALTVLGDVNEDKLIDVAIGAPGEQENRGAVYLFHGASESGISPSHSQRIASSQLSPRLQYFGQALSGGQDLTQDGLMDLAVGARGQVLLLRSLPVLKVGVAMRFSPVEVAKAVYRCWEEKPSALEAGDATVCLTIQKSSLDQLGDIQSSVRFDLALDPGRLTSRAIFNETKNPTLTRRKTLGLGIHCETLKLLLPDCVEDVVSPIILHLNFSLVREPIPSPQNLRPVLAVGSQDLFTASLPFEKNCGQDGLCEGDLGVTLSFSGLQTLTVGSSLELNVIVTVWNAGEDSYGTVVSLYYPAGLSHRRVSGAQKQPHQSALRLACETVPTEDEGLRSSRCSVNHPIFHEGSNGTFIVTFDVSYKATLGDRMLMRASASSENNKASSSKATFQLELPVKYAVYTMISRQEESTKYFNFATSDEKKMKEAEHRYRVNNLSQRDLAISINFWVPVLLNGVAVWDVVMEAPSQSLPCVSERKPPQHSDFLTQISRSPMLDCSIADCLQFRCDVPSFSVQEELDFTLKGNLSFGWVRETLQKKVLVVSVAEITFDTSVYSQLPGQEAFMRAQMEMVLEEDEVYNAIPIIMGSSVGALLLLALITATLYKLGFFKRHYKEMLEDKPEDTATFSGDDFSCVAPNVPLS
T1 sequence (P05107 23-769, chain 2 of 2): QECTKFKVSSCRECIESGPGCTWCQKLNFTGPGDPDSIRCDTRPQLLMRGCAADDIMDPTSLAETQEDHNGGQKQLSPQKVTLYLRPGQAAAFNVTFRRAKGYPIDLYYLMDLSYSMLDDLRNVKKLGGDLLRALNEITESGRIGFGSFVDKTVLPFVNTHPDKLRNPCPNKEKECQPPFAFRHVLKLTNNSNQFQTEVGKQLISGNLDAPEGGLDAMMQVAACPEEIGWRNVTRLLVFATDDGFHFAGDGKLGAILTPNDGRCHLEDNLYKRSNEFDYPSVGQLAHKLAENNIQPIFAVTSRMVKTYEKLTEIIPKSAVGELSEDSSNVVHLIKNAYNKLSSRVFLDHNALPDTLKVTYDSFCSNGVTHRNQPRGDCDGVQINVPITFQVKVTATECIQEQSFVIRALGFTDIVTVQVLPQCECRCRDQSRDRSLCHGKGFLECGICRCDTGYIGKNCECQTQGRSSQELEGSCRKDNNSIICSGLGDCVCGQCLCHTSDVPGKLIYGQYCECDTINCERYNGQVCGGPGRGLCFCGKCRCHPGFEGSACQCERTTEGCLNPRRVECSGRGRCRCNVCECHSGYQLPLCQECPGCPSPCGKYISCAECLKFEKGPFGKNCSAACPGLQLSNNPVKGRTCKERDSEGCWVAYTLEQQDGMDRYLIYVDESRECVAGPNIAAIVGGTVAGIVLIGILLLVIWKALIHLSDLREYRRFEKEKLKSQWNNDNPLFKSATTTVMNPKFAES
Procedure: (§1) Binding affinity of the exemplified CD11d antibodies of Table 2 were determined, for both human and rat CD11d, by Fluorescence Activated Cell Sorting (FACS) analysis. JY cells expressing human CD11d/CD18 or JY cells transfected with full-length rat CD11d are suspended in FACS buffer with goat IgG (1 mg/ml). The cell solution is added to wells of 96-well round-bottom plates at a density of 4.0×10⁴ cells in 50 μL solution. Each of the exemplified CD11d antibodies of Table 2 (25 μL) or isotype control antibody (25 μL) is added to a respective well at 1:3 dilutions at final concentrations ranging between 4.6 ng/mL to 10 μg/mL. The plates are incubated on ice for 30 minutes, after which 200 μL of FACS buffer is added, plates are centrifuged at 2000 rpm for 3 minutes, and the liquid is discarded. Cells are re-suspended with 50 μL of a phycoerythrin-conjugated antibody (Jackson ImmunoResearch p/n. 709-116-149) at a 1:150 dilution and incubated on ice for 20 minutes. FACS buffer is added (200 μL) to each well and plates are spun at 2000 rpm for 3 minutes. The liquid is discarded, cells are washed with 200 μL FACS buffer, re-suspended in 120 μL of 1% paraformaldehyde in PBS, and transferred to 96-well flat-bottom plates.
(§2) Stained cells are analyzed by flow cytometry with the gate set on the isotype control antibody. The specific percent gated is calculated as [% gated (test antibody)−% gated (isotype control antibody)]. Kd determinations were made based on a non-linear regression, one-site binding model. Following procedures essentially as described above, binding affinities of the exemplified CD11d antibodies of Table 2 to human and rat CD11d were obtained.

[2] = target: T2, full-length rat CD11d on transfected JY cells (rat, UniProt Q9QYE7 20-1161); assay: FACS on JY cells transfected with full-length rat CD11d; non-linear regression, one-site binding model
T2 construct: whole, on cells
T2 sequence (looked up): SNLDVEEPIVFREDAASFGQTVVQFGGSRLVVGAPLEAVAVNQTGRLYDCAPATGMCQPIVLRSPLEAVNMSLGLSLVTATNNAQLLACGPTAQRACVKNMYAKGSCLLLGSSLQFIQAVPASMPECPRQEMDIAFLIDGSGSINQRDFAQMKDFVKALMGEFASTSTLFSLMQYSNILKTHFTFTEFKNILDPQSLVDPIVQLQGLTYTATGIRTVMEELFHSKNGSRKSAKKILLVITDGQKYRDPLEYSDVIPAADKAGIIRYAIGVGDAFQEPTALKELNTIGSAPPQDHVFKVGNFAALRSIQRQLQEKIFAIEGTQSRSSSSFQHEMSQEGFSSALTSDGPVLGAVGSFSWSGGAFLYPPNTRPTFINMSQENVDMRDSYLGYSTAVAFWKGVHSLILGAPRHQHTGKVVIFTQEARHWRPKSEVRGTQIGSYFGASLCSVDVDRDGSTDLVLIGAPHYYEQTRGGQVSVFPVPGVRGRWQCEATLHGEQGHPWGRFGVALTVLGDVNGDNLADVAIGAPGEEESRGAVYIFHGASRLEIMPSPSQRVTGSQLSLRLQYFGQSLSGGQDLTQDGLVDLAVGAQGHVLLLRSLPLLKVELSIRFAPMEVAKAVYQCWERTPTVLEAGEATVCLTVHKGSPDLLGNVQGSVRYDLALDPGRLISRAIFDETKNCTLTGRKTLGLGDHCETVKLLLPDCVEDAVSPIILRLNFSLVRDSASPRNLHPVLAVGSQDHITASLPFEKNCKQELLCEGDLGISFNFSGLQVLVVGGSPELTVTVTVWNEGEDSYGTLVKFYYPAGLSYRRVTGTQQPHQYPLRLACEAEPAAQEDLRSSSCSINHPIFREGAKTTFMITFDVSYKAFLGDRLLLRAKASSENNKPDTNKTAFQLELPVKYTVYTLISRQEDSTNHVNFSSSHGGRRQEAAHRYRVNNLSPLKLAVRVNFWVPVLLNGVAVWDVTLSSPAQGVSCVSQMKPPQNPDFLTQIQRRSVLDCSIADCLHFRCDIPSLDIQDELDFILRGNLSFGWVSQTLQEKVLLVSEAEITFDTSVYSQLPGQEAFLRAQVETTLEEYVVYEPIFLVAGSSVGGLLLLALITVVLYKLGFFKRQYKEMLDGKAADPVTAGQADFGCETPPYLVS
Procedure: as §1, §2

Kd [1]: 0.344 nM
Kd [2]: 1.18 nM
B2: Exemplified Antibody 5 (antibody, human IgG4 S228P, kappa, F234A L235A, V domains shown)
VH: QVQLVQSGAEVKKPGASVKVSCKASGYTFTDYNMHWVRQAPGQGLEWMGYIYPYSGDTGYNQNFKSRVTMTRDTSTSTVYMELSSLRSEDTAVYYCARGLIYYGYLNVAMDSWGQGTLVTVSS
VL: DIQMTQSPSSLSASVGDRVTITCRASESIGTRIHWYQQKPGKAPKLLIYFASESISGVPSRFSGSGSGTDFTLTISSLQPEDFATYYCQQSKIWPTTFGGGTKLEIKR
notes: Humanized antibody, full LC (kappa) and HC (IgG4)

Kd [1]: 0.333 nM
Kd [2]: 0.247 nM
B3: Exemplified Antibody 4 (antibody, human IgG4 S228P, kappa, F234A L235A, V domains shown)
VH: B2 VH with T30Y, S55N, Y102H
VL: B2 VL with E27R, E53G, W94F
notes: as for B2

Kd [1]: 0.304 nM
Kd [2]: 0.677 nM
B4: Exemplified Antibody 3 (antibody, human IgG4 S228P, kappa, F234A L235A, V domains shown)
VH: B2 VH
VL: B2 VL with E27Q, W94G
notes: as for B2

The remaining lines, values behind:

B1: Exemplified Antibody 1 (antibody, human IgG4 S228P, kappa, F234A L235A, V domains shown)
VH: B2 VH with S55N
VL: B2 VL with E27Q
notes: as for B2
Kd [1]: 0.436 nM
Kd [2]: 1.45 nM

B5: Exemplified Antibody 2 (antibody, human IgG4 S228P, kappa, F234A L235A, V domains shown)
VH: B2 VH with T30G, S55N, I101V, Y102H
VL: B2 VL with E27R, E53G, W94F
notes: as for B2
Kd [1]: 0.303 nM
Kd [2]: 0.133 nM
